Laboratory results reported in paper doi:10.1101/705442.
pKd: −log10 of the molar value.

Biological target: extracellular matrix proteins (ELISA of Figure S3: 'In each case')
Assay: ELISA

Substance “capillary morphogenesis gene 2 (ANTXR2/CMG2), biotinylated CMG2-AviTag construct (from UniProt P58335 34-489) (receptor)” has a pKd of 6.00 to 6.30.
